Experiment [1] deals with T1, Mouse Epo (mouse, UniProt P07321 27-192).
T1 sequence: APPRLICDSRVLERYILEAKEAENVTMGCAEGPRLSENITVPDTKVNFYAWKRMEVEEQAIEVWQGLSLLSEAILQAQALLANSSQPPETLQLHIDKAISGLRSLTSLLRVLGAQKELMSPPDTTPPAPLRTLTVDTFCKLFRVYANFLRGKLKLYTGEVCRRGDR
The experiment can be described thus: solution equilibrium titration (SET), MSD ECL read-out, Fab with Epo titration.
Protocol: (§1) In SET, a constant amount of antibody is incubated with different concentrations of antigen until equilibrium is reached. The concentration of free antibody in the equilibrated solution is determined by applying the solution on an antigen coated MSD™ plate (Meso Scale Discovery™) followed by incubation with an ECL-labeled secondary antibody and measurement of signal intensity. […] If a sufficient number of antigen concentrations in a matching range are available, the titration curve allows for a reasonable determination of the affinity, using the appropriate fit model.
(§2) Streptavidin-coated standard MSD plates (Meso-Scale Discovery, 384-well: MSD cat #L11 SA) were blocked with 25 μl incubation buffer at RT for 1 hr. […] Plates were washed 3× in TBST buffer. […] Plates were washed 3× in TBST buffer. 25 μl detection antibody was added (Anti-Human (Goat) Sulfo-TAG, 1:1000 in incubation buffer, MSD cat #R32AJ-1), and incubated at RT for 60 min. Plates were washed 3× in wash buffer, and 50 μl of 1× MSD Read buffer T was added (with surfactant, MSD cat #R92TC-1). Plates were read on a MSD Spector Imager 6000.

Experiment [2] has as its target T2, Rat Epo (rat, UniProt P29676 27-192).
T2 sequence: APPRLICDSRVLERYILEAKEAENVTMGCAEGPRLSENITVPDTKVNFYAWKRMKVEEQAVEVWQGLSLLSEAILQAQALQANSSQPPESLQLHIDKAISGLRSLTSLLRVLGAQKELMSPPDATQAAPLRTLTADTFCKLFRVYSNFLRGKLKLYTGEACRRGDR
Described as above.
Protocol: as §1, §2

The target of experiment [3] is T3, Rabbit Epo (rabbit, UniProt Q9GKA2 29-195, limits assumed).
T3 sequence: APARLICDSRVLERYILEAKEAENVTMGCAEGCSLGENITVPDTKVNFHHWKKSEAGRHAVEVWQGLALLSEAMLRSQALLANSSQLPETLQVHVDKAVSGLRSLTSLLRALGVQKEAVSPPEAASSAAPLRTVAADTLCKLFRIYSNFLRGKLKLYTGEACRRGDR
The description is as above.
Protocol: as §1, §2

Experiment [4] has as its target T1, Mouse Epo. In words: SPR (Biacore T200), Fab captured by anti-human Fab, Epo as analyte, 25 C. For orientation: SPR reads the build-up and loss of mass on a sensor chip optically.
Protocol: (§3) Three flow cells were utilized for the method run. […] Both capture and binding steps were carried out on flow cells 2-4.
(§4) The resulting signals were adjusted by double referencing, thus subtracting the refraction index values from the reference flow cell and the binding step with no analyte. Data was collected at 10 Hz and analyzed using the Biacore® T100 Evaluation Software Version 1.1 (GE Healthcare). This program uses a global fitting analysis method for the determination of rate and affinity constants for each interaction.
Experiment [5] addresses T2, Rat Epo. Described as above.
Protocol: as §3, §4
Experiment [6] has as its target T3, Rabbit Epo. The experiment is described as above.
Protocol: as §3, §4
Experiment [7] addresses T1, Mouse Epo. In words: solution equilibrium titration (SET), MSD ECL read-out, Fab with Epo titration; single datapoint.
Protocol: as §1, §2
Experiment [8] deals with T2, Rat Epo. The experiment is described as above.
Protocol: as §1, §2
For experiment [9], the target named is T1, Mouse Epo. The experiment can be described thus: SPR (Biacore T200), Fab captured by anti-human Fab, Epo as analyte, 25 C; single datapoint.
Protocol: as §3, §4
Experiment [10] deals with T2, Rat Epo. The description is as above.
Protocol: as §3, §4
The target of experiment [11] is T3, Rabbit Epo. Described as above.
Protocol: as §3, §4
In experiment [12] the target is T1, Mouse Epo. The experiment can be described thus: SET; mouse Epo.
Protocol: as §1, §2
Experiment [13] addresses T2, Rat Epo. The experiment can be described thus: SET; rat Epo.
Protocol: as §1, §2
The target of experiment [14] is T1, Mouse Epo. The experiment can be described thus: SET.
Protocol: as §1, §2
Experiment [15] concerns the target T2, Rat Epo. In words: SET.
Protocol: as §1, §2

B1: NVS3 (Fab, V domains shown)
VH: QVQLQQSGPGLVKPSQTLSLTCAISGDSVSSNTAAWNWIRQSPSRGLEWLGVIYYRSKWYNDYAVSVKSRITINPDTSKNQFSLQLNSVTPEDTAVYYCARSVPGGDPGLEHAFAYWGRGTLVTVSS
VL: SYVLTQPPSVSVAPGKTARITCSGDNLGTYYVEWYQQKPGQAPVLVIYDDSDRPSGIPERFSGSNSGNTATLTISRVEAGDEADYYCASFASWSDSVFGGGTKLTVLG
notes: Human FabCys format; also called Fab NVS3; derived from initial antibody 11380
Usually Kd stands for a measure of binding affinity in units of concentration. Turning to B1, the Kd amounted to 2.5 pM with Mouse Epo [1]; 0.0012 nM with Rat Epo [2]; 0.0399 nM in the experiment with Rabbit Epo [3]; 0.001 nM in the experiment with Mouse Epo [4]; 0.038 nM in the experiment with Rat Epo [5]; 0.674 nM with Rabbit Epo [6].

B2: NVS1 (Fab, V domains shown)
VH: QVQLVQSGAEVKKPGSSVKVSCKASGGTFRSYAISWVRQAPGQGLEWMGGIDPISGFADYAQKFQGRVTITADESTSTAYMELSSLRSEDTAVYYCARELYYPGTWMAVMAYWGRGTLVTVSS
VL: SYVLTQPPSVSVAPGKTARITCSGDNIPEYYVHWYQQKPGQAPVLVIYRDNERPSGIPERFSGSNSGNTATLTISRVEAGDEADYYCQVFDESSWHWVFGGGTKLTVLG
notes: Human FabCys format (VH-CH1 ending EPKSC, lambda light chain); also called Fab NVS1; derived from initial antibody 11319
As to B2, the Kd in the experiment with Mouse Epo [7] was found to be 0.0161 nM; with Rat Epo [8], 5.4 pM; with Mouse Epo [9], 0.022 nM; with Rat Epo [10] it was 0.041 nM; in the experiment with Rabbit Epo [11] it was 0.661 nM.

B3: NVS2 (Fab, V domains shown)
VH: EVQLVQSGAEVKKPGESLKISCKGSGYSFTSYWIGWVRQMPGKGLEWMGWIDPYRSEIRYSPSFQGQVTISADKSISTAYLQWSSLKASDTAMYYCARVSSEPFDSWGQGTLVTVSS
VL: SYVLTQPPSVSVAPGKTARITCSGDKLGDHYAYWYQQKPGQAPVLVIYDDSKRPSGIPERFSGSNSGNTATLTISRVEAGDEADYYCATWTFEGDYVFGGGTKLTVLG
notes: Human FabCys format; also called Fab NVS2; anti-EPO Fab
B3: the Kd with Mouse Epo [1] came out at 37 pM; in the experiment with Rat Epo [2] it was 0.0127 nM; with Rabbit Epo [3], 3.86 nM; in the experiment with Mouse Epo [4], 0.0449 nM; with Rat Epo [5], 0.0566 nM; in the experiment with Rabbit Epo [6], 5.16 nM. Moreover, the figures for the Kd in the experiment with Mouse Epo [12] and in the experiment with Rat Epo [13] were less than 0.05 nM and less than 0.02 nM, respectively.

B4: NVS4 (Fab, V domains shown)
VH: QVQLVQSGAEVKKPGASVKVSCKASGYTFTSYYMSWVRQAPGQGLEWMGWINPLKGNTNYAQKFQGRVTMTRDTSISTAYMELSRLRSEDTAVYYCAREGMYFDIWGQGTLVTVSS
VL: SYELTQPLSVSVALGQTARITCSGDSIGDKYVYWYQQKPGQAPVLVIYDTNKRPSGIPERFSGSNSGNTATLTISRAQAGDEADYYCQSWDLDFNTYVFGGGTKLTVLG
notes: Human FabCys format; also called Fab NVS4; derived from initial antibody 11317
For B4, the Kd in the experiment with Mouse Epo [1] is 7.8 pM; in the experiment with Rat Epo [2], 0.0127 nM; with Rabbit Epo [3], 28.7 nM; in the experiment with Mouse Epo [4], 0.0305 nM; with Rat Epo [5], 0.0344 nM; in the experiment with Mouse Epo [14], less than 0.01 nM. The molecule also registered a dissociation constant (Kd) with Rat Epo [15] of less than 0.01 nM.

Source of the values: patent US20210355206A1 (Novartis, published 2021).
